Experimental data from patent US10520496B2 (priority 2015, dated 2019).
Values joined by “and” are separate entries in the source; they are usually repeats but may differ in a detail not shown here. Equal values may be shown once. “Also recorded” adds a separate entry of the source. Read-outs that look alike come from different tables or passages of the source. *: point of attachment. 5FAM = O=C1OC2(c3ccc(O)cc3Oc3cc(O)ccc32)c2ccc(C(=O)*)cc21; DABCYL = quencher, CN(C)c1ccc(/N=N/c2ccc(C(=O)*)cc2)cc1

What was measured:
[1] = molecular target: elastase (Sus scrofa, UniProt P00772); assay type: biochemical
Chain of elastase (P00772 27-266): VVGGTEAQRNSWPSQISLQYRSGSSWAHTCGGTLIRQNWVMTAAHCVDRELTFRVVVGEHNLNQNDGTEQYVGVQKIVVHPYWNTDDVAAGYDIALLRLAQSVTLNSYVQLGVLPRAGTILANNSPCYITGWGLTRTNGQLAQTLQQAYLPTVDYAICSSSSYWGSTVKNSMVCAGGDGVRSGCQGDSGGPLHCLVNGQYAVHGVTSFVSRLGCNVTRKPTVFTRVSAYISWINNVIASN

[2] = test system: Collagenase I/II; assay type: biochemical; conditions: general statement
Method: The cleavage sites produced by various proteases were analyzed using the known sequence of the novel protease substrate 5FAMcollagenPPT. As provided herein, the cleavage sites were determined based on the results of mass spectrometric analysis of the protease substrate 5FAMcollagenPPT peptide fragments obtained from an enzymatic reaction with various enzymes tested.
Cleavage of the novel fluorogenic protease substrate 5FAMcollagenPPT was further investigated using various proteases. After cleavage of the substrate by proteases, the resulting cleavage products of the protease substrate were specifically analyzed using matrix-assisted laser desorption/ionization (MALDI) mass spectrometry.
Next, the specific sequences of the protease substrate 5FAMcollagenPPT cleavage products were analyzed using MALDI. Briefly, each protease was incubated for 15 minutes with the protease substrate at 22° C. Buffer conditions and concentrations of the protease substrates and proteases were as described in Example 2. The uncleaved 5FAMcollagenPPT substrate has a molecular weight of 1669.8 Daltons. The molecular weights of the resulting products of the protease substrate after cleavage by various proteases are shown in Table 8 and FIG. 13.

[3] = molecular target: chymotrypsin (Bos taurus, UniProt P00766); assay type: biochemical
[4] = test system: trypsin; conditions: for Enzymes that do not cleave 5FAMcollagenPPT: trypsin: general statement
[5] = test system: collagenase; experiment: Enzymes that can cleave the substrate (Table 2); assay type: biochemical; conditions: general statement
[6] = molecular target: Botulinum neurotoxin A (Clostridium botulinum, UniProt P0DPI0)
[7] = molecular target: Thermolysin (Bacillus thermoproteolyticus, UniProt P00800); assay type: biochemical; conditions: for effect of zinc on measured RFU (enzymatic cleavage): zinc salt 16.7 μM, presence or absence of CaCl2 4.14 mM, vs control and NaSO4
Chain of Thermolysin (P00800 233-548): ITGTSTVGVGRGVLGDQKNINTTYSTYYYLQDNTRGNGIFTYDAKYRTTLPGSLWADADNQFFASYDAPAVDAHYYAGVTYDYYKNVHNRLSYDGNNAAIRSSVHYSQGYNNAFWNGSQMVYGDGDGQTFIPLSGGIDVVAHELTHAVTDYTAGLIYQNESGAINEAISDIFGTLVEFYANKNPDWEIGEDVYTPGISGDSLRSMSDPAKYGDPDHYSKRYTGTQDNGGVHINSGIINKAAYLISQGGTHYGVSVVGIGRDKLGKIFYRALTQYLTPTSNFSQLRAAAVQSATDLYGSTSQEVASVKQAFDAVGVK

[8] = molecular target: Botulinum neurotoxin B (Clostridium botulinum, UniProt P10844)
[9] = test system: Neutral Protease; assay type: biochemical, Clostridium histolyticum; conditions: for Km / Vmax: neutral protease 20 μg/ml, substrate 5-80 μM, Example 2; for effect of zinc on measured RFU (enzymatic cleavage): zinc salt 16.7 μM, presence or absence of CaCl2 4.14 mM, vs control and NaSO4
Text: GraphPad Prism (GraphPad Software 6.0, La Jolla, Calif., USA) was used for analyzing the data and generating the graphs. Both non-linear Michaelis-Menten and linear Lineweaver-Burk plots were used for the enzyme kinetics study. Kinetic parameters Vmax and Km were obtained from the Michaelis-Menten model by plotting the reaction velocity at different concentration of peptide substrate. Non-linear Michaelis-Menten curves for the enzymatic reaction in the presence and absence of CaCl2 were compared using Prism. All samples were run in duplicate, and results are reported as average±standard error of the mean (SEM). One-way or two-way ANOVA analysis followed by Tukey's multiple comparisons test was used to conduct multiple variable comparisons when applicable. Differences in data were considered significant when P values were less than 0.05.

[10] = water
[11] = molecular target: Collagenase II (Hathewaya histolytica, UniProt Q46085); assay type: biochemical, Clostridium histolyticum
[12] = molecular target: dispase (Paenibacillus polymyxa, UniProt P29148); experiment: Enzymes that can cleave the substrate (Table 2); assay type: biochemical; conditions: general statement
Chain of dispase (P29148 287-590): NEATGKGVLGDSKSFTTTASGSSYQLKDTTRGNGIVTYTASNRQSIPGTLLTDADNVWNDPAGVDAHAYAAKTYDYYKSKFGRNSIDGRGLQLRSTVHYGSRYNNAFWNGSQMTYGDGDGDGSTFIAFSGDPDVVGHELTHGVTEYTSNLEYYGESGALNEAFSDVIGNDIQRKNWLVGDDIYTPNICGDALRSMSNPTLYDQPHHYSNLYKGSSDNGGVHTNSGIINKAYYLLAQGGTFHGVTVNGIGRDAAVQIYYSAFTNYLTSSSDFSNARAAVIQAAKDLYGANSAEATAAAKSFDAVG

[13] = molecular target: Collagenase I (Hathewaya histolytica, UniProt Q9X721); assay type: biochemical, Clostridium histolyticum; conditions: for Km / Vmax: collagenase I 0.45 μg/ml; for effect of zinc on measured RFU (enzymatic cleavage): zinc salt 16.7 μM, presence or absence of CaCl2 4.14 mM, vs control and NaSO4
Chain of Collagenase I (Q9X721 111-1118): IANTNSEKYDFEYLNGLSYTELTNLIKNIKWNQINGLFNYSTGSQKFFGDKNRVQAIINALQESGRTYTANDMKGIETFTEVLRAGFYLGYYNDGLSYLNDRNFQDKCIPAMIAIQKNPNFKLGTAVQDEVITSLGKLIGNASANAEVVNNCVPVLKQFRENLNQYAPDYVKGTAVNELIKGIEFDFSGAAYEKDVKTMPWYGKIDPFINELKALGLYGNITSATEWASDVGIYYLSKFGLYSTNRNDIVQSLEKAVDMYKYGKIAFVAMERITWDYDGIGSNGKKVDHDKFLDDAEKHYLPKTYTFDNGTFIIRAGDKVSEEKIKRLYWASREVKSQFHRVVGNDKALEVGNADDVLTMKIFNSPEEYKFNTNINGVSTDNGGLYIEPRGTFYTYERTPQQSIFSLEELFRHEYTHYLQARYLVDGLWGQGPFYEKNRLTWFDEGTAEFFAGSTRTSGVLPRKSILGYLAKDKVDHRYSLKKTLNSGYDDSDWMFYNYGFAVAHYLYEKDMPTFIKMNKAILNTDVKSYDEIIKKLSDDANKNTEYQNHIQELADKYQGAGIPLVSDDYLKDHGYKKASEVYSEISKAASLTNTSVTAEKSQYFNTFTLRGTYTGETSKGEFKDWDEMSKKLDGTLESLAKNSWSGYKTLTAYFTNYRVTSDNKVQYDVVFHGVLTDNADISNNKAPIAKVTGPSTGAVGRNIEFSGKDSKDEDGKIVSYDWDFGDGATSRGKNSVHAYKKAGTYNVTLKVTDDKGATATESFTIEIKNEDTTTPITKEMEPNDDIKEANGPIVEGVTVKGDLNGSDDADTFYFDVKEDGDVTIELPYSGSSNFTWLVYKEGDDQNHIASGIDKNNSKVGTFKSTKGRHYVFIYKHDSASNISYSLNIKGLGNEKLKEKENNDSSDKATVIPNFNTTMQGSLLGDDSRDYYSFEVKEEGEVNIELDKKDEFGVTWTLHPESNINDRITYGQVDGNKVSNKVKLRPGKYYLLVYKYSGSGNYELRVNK

[14] = test system: proteases listed in Table 7 except thermolysin (Collagenase I Liq, Collagenase II Liq, Collagenase NB1, Collagenase I/II, Neutral Protease NB); assay type: biochemical; conditions: within the first hour; almost all proteases tested except thermolysin; peptide 10 μM; protease 20 μg/mL; pH 7.5
[15] = enzyme 0.3125-10 μg/mL, substrate 50 μM, Example 3
[16] = general statement, listed as 5FAM collagenPPT
[17] = Example 3 (FIG. 10), thermolysin 17 μg/ml
[18] = with 4.14 mM calcium, thermolysin 17 μg/ml, substrate 5-80 μM, Example 2
[19] = without calcium, thermolysin 17 μg/ml, substrate 5-80 μM, Example 2
[20] = with 4.14 mM calcium, substrate 5-80 μM, Example 2
[21] = without calcium, substrate 5-80 μM, Example 2

**Q.** Which “cleavage of substrate by elastase, dose response (FIG. 11)” value [1, 15] does the source give for “5-FAM-Ala-Gly-Gly-Pro-Leu-Gly-Pro-Pro-Gly-Pro-Gly-Gly-Lys-[DABCYL]-amide (5FAM-AGGPLGPPGPGGK(DABCYL)-NH2; SMILES CC(C)C[C@H](NC(=O)[C@@H]1CCCN1C(=O)CNC(=O)CNC(=O)[C@H](C)NC(=O)c1ccc2c(c1)C(=O)OC21c2ccc(O)cc2Oc2cc(O)ccc21)C(=O)NCC(=O)N1CCC[C@H]1C(=O)N1CCC[C@H]1C(=O)NCC(=O)N1CCC[C@H]1C(=O)NCC(=O)NCC(=O)N[C@@H](CCCCNC(=O)c1ccc(/N=N/c2ccc(N(C)C)cc2)cc1)C(N)=O) [5FAMcollagenPPT, novel fluorogenic FRET protease substrate]” here?
**A.** do not cleave

**Q.** And the “Enzymes that do not cleave 5FAMcollagenPPT: elastase” value [1, 16]?
**A.** elastase

**Q.** And the “Enzymes that can cleave 5FAMcollagenPPT: class I/II collagenase” value [2]?
**A.** cleaved

**Q.** What about the “cleavage of substrate by chymotrypsin, dose response (FIG. 11)” value [3, 15] of the same compound?
**A.** do not cleave

**Q.** What about the “Enzymes that do not cleave 5FAMcollagenPPT: chymotrypsin” value [3, 16] of the same compound?
**A.** chymotrypsin

**Q.** And the “cleavage of substrate by trypsin, dose response (FIG. 11)” value [4, 15]?
**A.** do not cleave

**Q.** What about the “cleavage of substrate by trypsin (FIG. 9)” value ([4]; enzyme 2.5, 5, 10 μg/ml, substrate 50 μM, with and without 4.14 mM CaCl2, compared to thermolysin) of the same compound?
**A.** significantly diminished reactivity; also recorded: not cleaved

**Q.** And the “Enzymes that do not cleave 5FAMcollagenPPT: trypsin” value [4]?
**A.** not degraded; also recorded: resistant to trypsin; also recorded: resistant to cleavage

**Q.** What about the “Enzymes that do not cleave 5FAMcollagenPPT: trypsin” value ([4]; listed as 5FAM collagenPPT) of the same compound?
**A.** trypsin

**Q.** What about the “Enzymes that can cleave 5FAMcollagenPPT: collagenase” value [5] of the same compound?
**A.** collagenase-specific

**Q.** And the “Enzymes that can cleave 5FAMcollagenPPT: Botulinum neurotoxin A” value [6]?
**A.** Botulinum neurotoxin A and B

**Q.** And the Km [7, 17]?
**A.** 34.6 µM

**Q.** And the Vmax [7, 17]?
**A.** 24.6 RFU/min/μg

**Q.** And the “specificity of substrate for thermolysin, dose response (FIG. 11)” value [7, 15]?
**A.** highly specific

**Q.** And the “cleavage of substrate by thermolysin (FIG. 9)” value ([7]; enzyme 2.5, 5, 10 μg/ml, substrate 50 μM, with and without 4.14 mM CaCl2)?
**A.** dose-dependent cleavage; also recorded: cleaved

**Q.** And the “Enzymes that can cleave 5FAMcollagenPPT: thermolysin” value ([7]; general statement)?
**A.** cleaved by thermolysin; also recorded: shown to cleave; also recorded: cleavable by thermolysin

**Q.** What about the “effect of pH on enzymatic cleavage activity” value (shortened to “effect of pH”) ([7]; pH 8.0 compared to all other pH conditions, substrate 20 μM) of the same compound?
**A.** significantly inhibited

**Q.** And the Km [7, 18]?
**A.** 24.8 µM

**Q.** And the Vmax [7, 18]?
**A.** 25.47 RFU/min/μg

**Q.** What about the Km [7, 19] of the same compound?
**A.** 30.4 µM

**Q.** What about the Vmax [7, 19] of the same compound?
**A.** 23.7 RFU/min/μg

**Q.** What about the “Enzymes that can cleave 5FAMcollagenPPT: Botulinum neurotoxin B” value [8] of the same compound?
**A.** Botulinum neurotoxin A and B

**Q.** And the “effect of pH” value ([9]; between pH 7.0 and pH 8.0, substrate 20 μM)?
**A.** significant difference

**Q.** What about the Km ([9]; with 4.14 mM calcium) of the same compound?
**A.** 45.1 µM

**Q.** And the Vmax ([9]; with 4.14 mM calcium)?
**A.** 29.28 RFU/min/μg

**Q.** What about the Km ([9]; without calcium) of the same compound?
**A.** 74.1 µM

**Q.** And the Vmax ([9]; without calcium)?
**A.** 20.04 RFU/min/μg

**Q.** What about the solubility [10] of the same compound?
**A.** water soluble

**Q.** What about the “Enzymes that can cleave 5FAMcollagenPPT: collagenase II (class II)” value [11] of the same compound?
**A.** shown to cleave; also recorded: cleaved

**Q.** What about the Km [11] of the same compound?
**A.** 29.7 µM and 24.1 µM and 24.5 µM

**Q.** And the Vmax [11]?
**A.** 3354.43 RFU/min/μg and 3243.942 RFU/min/μg and 5000 RFU/min/μg

**Q.** What about the “effect of pH” value [11] of the same compound?
**A.** significantly inhibited

**Q.** And the “Enzymes that can cleave 5FAMcollagenPPT: dispase” value [12]?
**A.** cleaved; also recorded: dispase

**Q.** What about the Km ([13]; Example 3 (FIG. 10)) of the same compound?
**A.** 28.2 µM

**Q.** And the Vmax ([13]; Example 3 (FIG. 10))?
**A.** 909 RFU/min/μg

**Q.** And the “Enzymes that can cleave 5FAMcollagenPPT: collagenase I (class I)” value ([13]; general statement)?
**A.** shown to cleave; also recorded: cleaved

**Q.** And the “effect of pH” value ([13]; pH 6.8, 7.0, 7.5, 8.0, substrate 20 μM)?
**A.** influenced by pH except Collagenase I

**Q.** What about the Km [13, 20] of the same compound?
**A.** 32.9 µM

**Q.** And the Vmax [13, 20]?
**A.** 1008.158 RFU/min/μg

**Q.** What about the Km [13, 21] of the same compound?
**A.** 38.1 µM

**Q.** What about the Vmax [13, 21] of the same compound?
**A.** 1704.72 RFU/min/μg

**Q.** And the “cleavage of substrate over time (FIG. 12)” value [14]?
**A.** efficient cleavage

**Q.** For `[Ca+2].[Cl-].[Cl-]` [CaCl2, reference compound], which “effect of CaCl2 on the cleavage reaction (Michaelis-Menten curves)” value (“effect of CaCl2 on the cleavage reaction” below) ([7]; CaCl2 4.14 mM, Thermolysin 17 μg/ml, substrate 5FAMcollagenPPT 5-80 μM) is on record?
**A.** did not change significantly

**Q.** And the “effect of CaCl2 on the cleavage reaction” value ([9]; CaCl2 4.14 mM, Neutral Protease 20 μg/ml, substrate 5FAMcollagenPPT 5-80 μM)?
**A.** significantly enhanced

**Q.** And the “effect of CaCl2 on the cleavage reaction” value [11]?
**A.** did not change significantly

**Q.** And the “effect of CaCl2 on the cleavage reaction” value ([13]; CaCl2 4.14 mM, Collagenase I 0.45 μg/ml, substrate 5FAMcollagenPPT 5-80 μM)?
**A.** significantly enhanced

**Q.** Which “effect of EGTA on RFU levels vs controls” value ([7]; EGTA 25, 50, 100 mM, thermolysin 17 μg/ml, substrate 20 μM) does the source give for `O=C(O)CN(CCOCCOCCN(CC(=O)O)CC(=O)O)CC(=O)O` [EGTA, ethylene glycol-bis(β-aminoethyl ether)-N,N,N′,N′-tetraacetic acid, reference compound] here?
**A.** significant differences

**Q.** And the “effect of EGTA on RFU levels vs controls” value [11]?
**A.** significant differences

**Q.** With `[Cl-].[Cl-].[Zn+2]` [ZnCl2, reference compound] as the compound, how does the “effect of zinc on measured RFU (enzymatic cleavage)” value (“effect of zinc on measured RFU” for short) ([7]; substrate 20 μM) read?
**A.** significantly decreased

**Q.** And the “effect of zinc on measured RFU” value ([9]; substrate 20 μM)?
**A.** significantly decreased

**Q.** What about the “effect of zinc on measured RFU” value [11] of the same compound?
**A.** significantly decreased

**Q.** And the “effect of zinc on measured RFU” value ([13]; substrate 20 μM)?
**A.** significantly decreased

**Q.** Which “effect of zinc on measured RFU” value ([7]; substrate 20 μM) does the source give for `O=S(=O)([O-])[O-].[Zn+2]` [ZnSO4, reference compound] here?
**A.** significantly decreased

**Q.** And the “effect of zinc on measured RFU” value ([9]; substrate 20 μM)?
**A.** significantly decreased

**Q.** And the “effect of zinc on measured RFU” value [11]?
**A.** significantly decreased

**Q.** And the “effect of zinc on measured RFU” value ([13]; substrate 20 μM)?
**A.** significantly decreased
